Source: patent publication US20260139032A1

Target: T1, BMP-9 (UniProt Q9UK05)
T1 sequence (looked up): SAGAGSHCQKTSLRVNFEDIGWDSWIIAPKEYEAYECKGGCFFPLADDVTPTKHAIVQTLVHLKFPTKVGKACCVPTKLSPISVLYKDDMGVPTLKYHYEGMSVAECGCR
Assay: cell-based or functional assay

Row | BMP-9 IC50 (nM), BMP-reporter HepG2 cell-based assay | fold decrease of inhibition potency on BMP-9, BMP-reporter HepG2 assay | Substance
1 | 485 nM | > 100 fold | P1193 (hActRIIB L33Y F58E, 10 aa linker, IgG1-DL Fc) (Fc fusion)
2 | 667 nM | > 100 fold | P1198 (hActRIIB L33Q F58E, 3 aa GGG linker, IgG1-DL Fc) (Fc fusion)
